Each block holds one molecule with its values, some of them ahead of it.
Assays:
Assay in all cases: BRET assay (LuTHy system)
[1] = biological target: sperm associated antigen 6 (SPAG6), full CDS fused to a proteinA-mCitrine tag (UniProt O75602); conditions: parent: est. 0.41; read off a plot
[2] = biological target: C-terminal portion of DYNC1H1 (1000 AA) fused to a proteinA-mCitrine tag (UniProt Q14204); conditions: parent: est. 0.52; read off a plot
[3] = biological target: C-terminal portion of DYNC1H1 (1000 AA) fused to a proteinA-mCitrine tag, Q14204; conditions: chain shown with the change;; parent: est. 0.52; read off a plot
[4] = biological target: T1, sperm associated antigen 6 (SPAG6), full CDS fused to a proteinA-mCitrine tag, O75602; conditions: chain shown with the change;; parent: est. 0.41; read off a plot
T1 chain: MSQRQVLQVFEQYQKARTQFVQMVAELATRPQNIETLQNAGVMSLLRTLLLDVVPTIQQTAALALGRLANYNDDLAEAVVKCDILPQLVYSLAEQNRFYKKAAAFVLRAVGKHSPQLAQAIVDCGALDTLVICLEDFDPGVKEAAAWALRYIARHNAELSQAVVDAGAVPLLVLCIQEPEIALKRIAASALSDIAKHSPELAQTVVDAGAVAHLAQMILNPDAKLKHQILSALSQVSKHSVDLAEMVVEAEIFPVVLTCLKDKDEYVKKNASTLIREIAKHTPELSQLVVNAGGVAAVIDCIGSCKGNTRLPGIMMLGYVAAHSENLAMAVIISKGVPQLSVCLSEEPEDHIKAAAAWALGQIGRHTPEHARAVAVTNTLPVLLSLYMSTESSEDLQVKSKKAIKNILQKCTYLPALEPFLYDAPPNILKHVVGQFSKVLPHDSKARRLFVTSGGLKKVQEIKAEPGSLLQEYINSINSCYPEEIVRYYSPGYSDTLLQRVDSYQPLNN

Sequence of C-terminal portion of DYNC1H1 (1000 AA) fused to a proteinA-mCitrine tag, Q14204 (Q14204 whole entry, the tested form may be a part): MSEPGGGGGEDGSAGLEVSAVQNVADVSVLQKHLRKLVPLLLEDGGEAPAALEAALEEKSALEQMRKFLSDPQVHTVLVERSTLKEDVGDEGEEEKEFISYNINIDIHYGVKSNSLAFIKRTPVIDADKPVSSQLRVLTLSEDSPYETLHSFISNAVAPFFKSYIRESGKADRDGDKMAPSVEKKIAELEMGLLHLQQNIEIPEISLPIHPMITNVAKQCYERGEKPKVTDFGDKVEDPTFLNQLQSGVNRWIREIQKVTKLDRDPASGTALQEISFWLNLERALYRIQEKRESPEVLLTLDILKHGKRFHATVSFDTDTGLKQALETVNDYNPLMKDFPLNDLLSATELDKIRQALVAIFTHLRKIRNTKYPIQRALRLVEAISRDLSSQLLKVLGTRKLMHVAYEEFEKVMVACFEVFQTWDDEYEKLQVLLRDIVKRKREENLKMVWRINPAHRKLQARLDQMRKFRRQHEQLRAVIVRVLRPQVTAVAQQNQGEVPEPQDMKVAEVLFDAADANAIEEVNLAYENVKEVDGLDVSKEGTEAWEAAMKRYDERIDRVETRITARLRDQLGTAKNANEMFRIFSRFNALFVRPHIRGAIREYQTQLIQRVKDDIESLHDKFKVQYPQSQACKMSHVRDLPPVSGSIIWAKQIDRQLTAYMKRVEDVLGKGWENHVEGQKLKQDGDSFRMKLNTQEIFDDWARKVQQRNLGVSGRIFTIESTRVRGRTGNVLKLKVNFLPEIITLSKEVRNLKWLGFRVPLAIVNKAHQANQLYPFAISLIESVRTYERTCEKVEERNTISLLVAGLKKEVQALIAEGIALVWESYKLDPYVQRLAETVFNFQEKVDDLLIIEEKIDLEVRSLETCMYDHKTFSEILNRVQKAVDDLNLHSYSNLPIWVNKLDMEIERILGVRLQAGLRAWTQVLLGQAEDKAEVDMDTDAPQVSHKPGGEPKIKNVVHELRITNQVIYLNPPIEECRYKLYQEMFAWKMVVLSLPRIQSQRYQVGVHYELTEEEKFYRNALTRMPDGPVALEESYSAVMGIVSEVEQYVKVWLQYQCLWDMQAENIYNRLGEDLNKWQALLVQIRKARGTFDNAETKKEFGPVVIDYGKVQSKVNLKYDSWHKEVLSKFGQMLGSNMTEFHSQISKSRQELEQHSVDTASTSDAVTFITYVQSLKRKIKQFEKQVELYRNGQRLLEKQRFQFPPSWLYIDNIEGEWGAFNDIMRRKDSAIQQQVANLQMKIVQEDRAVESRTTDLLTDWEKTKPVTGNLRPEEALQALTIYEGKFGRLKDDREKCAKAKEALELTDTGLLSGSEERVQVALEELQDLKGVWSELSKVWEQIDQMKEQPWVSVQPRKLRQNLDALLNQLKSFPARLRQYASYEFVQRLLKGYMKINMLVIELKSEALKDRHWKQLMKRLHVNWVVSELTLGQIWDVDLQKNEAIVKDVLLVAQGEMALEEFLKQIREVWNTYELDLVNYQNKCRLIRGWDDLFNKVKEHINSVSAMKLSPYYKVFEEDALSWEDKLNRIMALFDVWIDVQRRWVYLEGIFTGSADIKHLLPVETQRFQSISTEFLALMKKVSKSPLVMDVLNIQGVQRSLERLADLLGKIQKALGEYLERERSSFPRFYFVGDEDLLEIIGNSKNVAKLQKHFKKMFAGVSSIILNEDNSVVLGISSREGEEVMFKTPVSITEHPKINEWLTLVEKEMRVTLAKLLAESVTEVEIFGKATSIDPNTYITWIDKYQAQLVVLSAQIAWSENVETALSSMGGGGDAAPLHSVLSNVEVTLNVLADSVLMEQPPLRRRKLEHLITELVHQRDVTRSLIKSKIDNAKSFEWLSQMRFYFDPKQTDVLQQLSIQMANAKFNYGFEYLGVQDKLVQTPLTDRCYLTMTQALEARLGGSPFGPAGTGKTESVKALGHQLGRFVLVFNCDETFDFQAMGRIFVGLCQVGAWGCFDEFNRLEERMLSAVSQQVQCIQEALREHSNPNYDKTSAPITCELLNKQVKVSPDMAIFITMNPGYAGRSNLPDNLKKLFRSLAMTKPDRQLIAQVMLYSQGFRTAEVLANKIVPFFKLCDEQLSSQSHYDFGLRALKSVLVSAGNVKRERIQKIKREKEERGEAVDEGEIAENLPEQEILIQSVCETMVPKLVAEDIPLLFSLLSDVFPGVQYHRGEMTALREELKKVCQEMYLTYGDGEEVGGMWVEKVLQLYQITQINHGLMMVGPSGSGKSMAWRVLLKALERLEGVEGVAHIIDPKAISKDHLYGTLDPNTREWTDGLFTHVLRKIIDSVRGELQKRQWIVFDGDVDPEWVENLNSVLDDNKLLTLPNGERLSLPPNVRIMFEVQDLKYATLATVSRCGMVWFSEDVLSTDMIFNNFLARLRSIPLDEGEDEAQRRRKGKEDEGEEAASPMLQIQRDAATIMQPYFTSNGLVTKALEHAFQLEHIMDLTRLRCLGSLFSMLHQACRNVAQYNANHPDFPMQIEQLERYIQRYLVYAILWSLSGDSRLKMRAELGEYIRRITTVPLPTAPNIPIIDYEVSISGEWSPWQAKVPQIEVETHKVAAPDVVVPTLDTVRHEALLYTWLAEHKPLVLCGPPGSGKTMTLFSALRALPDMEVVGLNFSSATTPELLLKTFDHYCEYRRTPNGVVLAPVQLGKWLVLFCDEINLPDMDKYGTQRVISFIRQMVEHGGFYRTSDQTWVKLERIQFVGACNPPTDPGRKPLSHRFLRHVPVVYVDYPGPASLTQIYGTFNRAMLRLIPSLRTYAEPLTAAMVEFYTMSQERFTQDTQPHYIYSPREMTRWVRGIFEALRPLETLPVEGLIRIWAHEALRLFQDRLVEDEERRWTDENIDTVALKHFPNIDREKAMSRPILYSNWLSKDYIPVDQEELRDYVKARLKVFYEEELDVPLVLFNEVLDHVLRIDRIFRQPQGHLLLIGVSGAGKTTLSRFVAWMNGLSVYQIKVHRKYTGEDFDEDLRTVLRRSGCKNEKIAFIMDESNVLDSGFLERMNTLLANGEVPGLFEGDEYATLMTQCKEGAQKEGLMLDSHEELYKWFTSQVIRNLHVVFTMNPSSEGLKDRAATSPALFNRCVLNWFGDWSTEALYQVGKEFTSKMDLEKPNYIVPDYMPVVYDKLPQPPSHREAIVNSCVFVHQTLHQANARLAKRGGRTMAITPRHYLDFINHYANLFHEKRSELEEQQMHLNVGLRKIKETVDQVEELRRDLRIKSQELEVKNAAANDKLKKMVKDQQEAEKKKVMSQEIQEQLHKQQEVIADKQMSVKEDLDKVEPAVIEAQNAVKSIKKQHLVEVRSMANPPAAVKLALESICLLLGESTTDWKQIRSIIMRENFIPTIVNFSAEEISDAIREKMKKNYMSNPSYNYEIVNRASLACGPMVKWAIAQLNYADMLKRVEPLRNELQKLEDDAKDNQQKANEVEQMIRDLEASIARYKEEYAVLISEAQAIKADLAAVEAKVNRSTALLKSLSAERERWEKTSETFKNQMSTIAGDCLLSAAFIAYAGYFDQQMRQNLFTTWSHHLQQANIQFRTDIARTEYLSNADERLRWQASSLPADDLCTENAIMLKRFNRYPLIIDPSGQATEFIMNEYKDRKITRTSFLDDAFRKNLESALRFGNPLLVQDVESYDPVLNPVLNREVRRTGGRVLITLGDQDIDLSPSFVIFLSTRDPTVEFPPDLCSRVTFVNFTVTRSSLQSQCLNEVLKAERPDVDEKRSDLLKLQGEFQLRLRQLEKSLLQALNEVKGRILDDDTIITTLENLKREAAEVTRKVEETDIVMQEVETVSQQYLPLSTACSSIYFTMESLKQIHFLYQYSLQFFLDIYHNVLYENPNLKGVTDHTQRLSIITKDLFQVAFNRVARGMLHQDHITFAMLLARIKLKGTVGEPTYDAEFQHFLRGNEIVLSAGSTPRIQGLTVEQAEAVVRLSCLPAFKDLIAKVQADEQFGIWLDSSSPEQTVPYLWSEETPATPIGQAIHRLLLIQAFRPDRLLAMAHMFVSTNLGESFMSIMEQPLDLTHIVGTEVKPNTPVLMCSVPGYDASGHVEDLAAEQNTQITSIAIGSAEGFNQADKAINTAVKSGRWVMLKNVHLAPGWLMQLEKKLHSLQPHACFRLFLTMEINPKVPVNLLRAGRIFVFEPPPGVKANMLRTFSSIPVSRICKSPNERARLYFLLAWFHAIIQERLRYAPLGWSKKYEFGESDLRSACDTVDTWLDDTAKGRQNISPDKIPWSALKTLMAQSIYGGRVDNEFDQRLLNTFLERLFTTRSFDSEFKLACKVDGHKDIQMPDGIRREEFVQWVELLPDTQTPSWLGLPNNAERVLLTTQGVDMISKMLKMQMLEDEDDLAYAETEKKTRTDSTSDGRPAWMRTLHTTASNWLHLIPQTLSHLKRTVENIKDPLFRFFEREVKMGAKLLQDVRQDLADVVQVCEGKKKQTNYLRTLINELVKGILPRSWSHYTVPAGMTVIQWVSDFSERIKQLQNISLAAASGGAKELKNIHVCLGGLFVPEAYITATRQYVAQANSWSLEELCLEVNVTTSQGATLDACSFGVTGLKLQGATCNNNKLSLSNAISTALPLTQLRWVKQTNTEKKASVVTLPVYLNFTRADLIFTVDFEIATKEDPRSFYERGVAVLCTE

response [1]: 0.33
response [2]: 0.55
Molecule: coiled-coil domain-containing protein 103 (CCDC103), full-length coding sequence fused to a Nano-luciferase (NL)-Myc tag (from UniProt Q8IW40) p.Ala11Pro

response [3]: 0.38
response [4]: 0.22
B1: coiled-coil domain-containing protein 103 (CCDC103), full-length coding sequence fused to a Nano-luciferase (NL)-Myc tag, Q8IW40 p.His154Pro (protein)
chain: MERNDIINFKALEKELQAALTADEKYKRENAAKLRAVEQRVASYEEFRGIVLASHLKPLERKDKMGGKRTVPWNCHTIQGRTFQDVATEISPEKAPLQPETSADFYRDWRRHLPSGPERYQALLQLGGPRLGCLFQTDVGFGLLGELLVALADPVGPADRAAVLGILCSLASTGRFTLNLSLLSRAERESCKGLFQKLQAMGNPRSVKEGLSWEEQGLEEQSGGLQEEERLLQELLELYQVD

Source: paper PMC8214733
